Laboratory results published in US7611721B1, “Adjuvant combination formulations” (priority 2000, dated 2009).

Key:
T1SP10MN(A) (−Cys) [1] = tested on: T1SP10MN(A) (−Cys)
Protocol: Mice were immunized subcutaneously in the rump, in a total volume of 0.2 ml equally divided on each side of the tail. Immunizations were administered at varying time intervals, as indicated below. Antigen and cytokines were diluted in phosphate buffered saline to the appropriate concentrations and formulated with adjuvants less than 16 hours prior to immunization, under sterile conditions. Vaccines were mixed by gentle agitation, and stored at 4° C. Formulations were mixed by vortex immediately prior to immunization.
Animals were bled prior to initial immunization, and at indicated time points. Serum was analyzed from individual mice, or as pools from mice within groups.
For analysis of HIV peptide-specific antibody and subclass distribution, peptide was suspended in either carbonate buffer (15 mM Na2CO3, 35 mM NaHCO3, pH 9.6), or PBS, at a concentration of 1 μg/ml and plated to 96 well microtiter plates (Nunc) in a volume of 100:1. After overnight incubation at 37° C., plates were washed, and blocked (0.1% gelatin/PBS) at room temperature for 2-4 hours. ELISA plates were washed with wash buffer (PBS, 0.1% Tween™20) before addition of serially diluted serum (PBS, 0.1% gelatin, 0.05% Tween™20, 0.02% sodium azide). After a four hour incubation, wells were washed and appropriate dilutions of biotinylated anti-isotype/subclass antibodies were added for incubation at 4° C. overnight. Wells were washed and incubated with strepavidin-conjugated horseradish peroxidase. After incubation, wells were washed, and developed with ABTS. Wells were read at 405 nm. Titers were standardized using control sera.
Reciprocal anti-HIV peptide-specific IgG endpoint titers were measured from pooled serum (n=5 Balb/c) at the indicated time points after initial immunization. Mice were immunized subcutaneously in the rump with 25 μg of T1SP10MN(A) (−Cys), unless otherwise indicated, on day 0, and on day 27. For recipients of Freund's adjuvants, mice were primed with peptide emulsified in CFA, and boosted with IFA. MPL™ SE was provided as an emulsion containing 2% squalene oil and 50 μg MPL™ per dose. SE is an oil-in-water emulsion vehicle consisting of squalene, glycerol, and an emulsifying agent. Recombinant murine IL-12 was delivered at 50 ng/mouse. Recombinant murine GM-CSF was delivered at 10 μg/mouse.
Reciprocal endpoint IgG subclass titers were measured from pooled serum (n=5 Balb/c) six weeks after initial immunization, two weeks after secondary immunization. Mice were immunized subcutaneously in the rump with 25 μg of peptide, unless otherwise indicated. For recipients of Freund's adjuvants, mice were primed with peptide emulsified in complete Freund's adjuvant, and boosted with incomplete Freund's adjuvant on weeks four and six. MPL™ SE was provided as an emulsion containing 2% squalene oil and 50 μg MPL™ per dose. SE is an oil-in-water emulsion vehicle consisting of squalene, glycerol, and an emulsifying agent. Recombinant murine IL-12 was delivered at 50 ng/mouse. Recombinant murine GM-CSF was delivered at 10 μg/mouse.
Mice were immunized subcutaneously in the rump, in a total volume of 0.2 ml equally divided on each side of the tail. Immunizations were administered on days 0 and 21 with 25 μg of the HIV peptide, together with the indicated amount of adjuvant(s).
Reciprocal anti-peptide IgG endpoint titers were measured from either geometric means from individual mice (GMT) or from pooled serum (n=5 Balb/c), obtained 14 days after the second immunization. IgG1 and IgG2a subclass endpoint titers were also measured from pooled serum.

spleen cells [2] = experiment: Secretion of interferon-gamma by spleen cells (ELISA); type: cell-based, Balb/c mice; details: for Secretion of Interferon-gamma, Con A 1 μg/ml: Experiment 1
Protocol: (§1) For proliferation assays and in vitro cytokine analysis, spleen cells were obtained from mice at the indicated time points. Single cell suspensions were prepared from pools of 3-5 mice as indicated in Results. For proliferation and cytokine analysis, cells were suspended in round bottom 96 well culture plates precoated overnight with HIV peptide antigens, control proteins, or RPMI-10 only. Spleen cells were added at 5×10^5 cells/well using culture medium having 2× supplements. Cell culture supernatants were harvested from triplicate wells for cytokine analysis three or six days after culture initiation. Immediately after supernatant harvest, cultures were pulsed with ^3H-thymidine for 18-24 hours, and harvested to quantify cell proliferation.
(§2) For cytokine analysis, cell culture supernatants were added to wells coated with BVD6-11B11 (for anti-IL4), or R4-6A2 (for interferon-gamma). After incubation and washing, wells were developed using biotin-labeled BVD6-24G2 (for IL4) or XMG 1.2 (for interferon-gamma). The concentration of cytokines was determined using a standard curve prepared from recombinant murine interferon-gamma or interleukin-4. All cytokine reagents were purchased from Pharmingen (San Diego, Calif.).
(§3) Interferon-gamma secreted into culture by spleen cells stimulated with 25 μg T1SP10MN(A) (−Cys). Spleen cells were harvested from pools of five Balb/c female mice and cultured with the indicated antigenic stimuli (the same as in Example 6) for either three or six days. Interferon-gamma levels were determined by ELISA, and compared to a standard having a known concentration. Blank wells indicate that the assay could not detect Interferon-gamma from those culture conditions. The lower limit of detection sensitivity was 4 picograms/ml.
Cells were cultured for a total of 96 hours. Cell culture supernatants were analyzed for interferon-gamma by ELISA. All values were after subtraction from those determined from supernatants of cells stimulated with 10 μg of lysozyme. Results which were below the limit of detection, after subtraction from stimulation induced with lysozyme are indicated as “bd”. The adjuvants were the same as those in Example 12.

spleen cells [3] = type: cell-based, Balb/c mice
Protocol: as §1
Groups of five Balb/c female mice were immunized with 25 μg T1SP10MN(A) (−Cys) and the indicated adjuvants on days 0 and 28. Spleen cells were established in culture on day 56, and harvested for measurement of ^3H-thymidine incorporation 96 hours later. Mice were immunized with 50 ng IL-12, […], 50 μg MPL™ in an aqueous formulation, or as a stable emulsion with 2% SE. Data are presented as the delta cpm values as compared to proliferation values measured from cells grown in culture without stimulation.
Cells were cultured for a total of 96 hours. ^3H-thymidine was added to cultures for the last 18 hours. Data are presented as a proliferation index normalized to cells stimulated in culture with ConA ([mean cpm Antigen/mean cpm ConA]−[mean cpm medium/mean cpm ConA])×100. As a result, cells cultured in medium have a background proliferation of 0. Proliferation values less than cells grown in culture unstimulated are in parentheses.

spleen cells [4] = experiment: Secretion of IL-4 by spleen cells (ELISA); type: cell-based, Balb/c mice
Protocol: as §1, §2
as §3, with “Interleukin-4” for “Interferon-gamma”, “(−Cys) was measured.” for “(−Cys).”, “(50 ng IL-12, 10 μg GM-CSF, 50 μg MPL™” for “(the same”, “indicated)” for “in Example 6)”, “22 Units/ml.” for “4 picograms/ml.”
Cells were cultured for a total of 96 hours. Cell culture supernatants were analyzed for IL-4 by ELISA. All values were after subtraction from those determined from supernatants of cells stimulated with 10 μg of an irrelevant protein (lysozyme). Results which were below the limit of detection, after subtraction from stimulation induced with lysozyme are indicated as “bd”. The adjuvants were 40 ng IL-12, 10 μg GM-CSF and 50 μg MPL™.

T1SP10MN(A) (−Cys) [5] = details: Experiment 3; pooled, n=5 Swiss-Webster; 15 days after secondary immunization
Protocol: The protocols of Experiment 2 were followed, with Swiss-Webster mice used instead of Balb/c mice. Only reciprocal anti-peptide IgG endpoint titers and vaginal lavage endpoint reciprocal endpoint IgG and IgA antibody titers were measured in this experiment.
Aqueous MPL™ was delivered at 50 μg per dose. Recombinant murine IL-12 was delivered at 40 ng/mouse. Recombinant murine GM-CSF was delivered at 10 μg/mouse.

[6] = Experiment 1, pooled serum n=5 Balb/c, 25 μg peptide s.c. day 0 and 27
[7] = Experiment 1, pooled serum n=5 Balb/c, six weeks after initial, two weeks after secondary immunization, 25 μg peptide
[8] = Experiment 2, pooled serum n=5 Balb/c, 14 days after second immunization
[9] = Experiment 4, individual Balb/c mouse, day 41, 13 days after secondary immunization (days 0 and 28)
[10] = Experiment 4, pooled serum n=5 Balb/c, day 41, 13 days after secondary immunization
[11] = Experiment 2, 96 hours culture, after subtraction of lysozyme value
[12] = Experiment 2, 96 hours culture, after subtraction of lysozyme value, bd = below limit of detection
[13] = Experiment 1, immunized days 0 and 28, culture day 56, 96 hours
[14] = Experiment 2, 96 hours culture, values in parentheses are less than unstimulated cells

B1: rIL-12: Recombinantly expressed murine IL-12 (Genetics Institute) (protein, UniProt P43431 23-215; P43432 23-335, looked up)
Interleukin-12 subunit alpha: RVIPVSGPARCLSQSRNLLKTTDDMVKTAREKLKHYSCTAEDIDHEDITRDQTSTLKTCLPLELHKNESCLATRETSSTTRGSCLPPQKTSLMMTLCLGSIYEDLKMYQTEFQAINAALQNHNHQQIILDKGMLVAIDELMQSLNHNGETLRQKPPVGEADPYRVKMKLCILLHAFSTRVVTINRVMGYLSSA
Interleukin-12 subunit beta: MWELEKDVYVVEVDWTPDAPGETVNLTCDTPEEDDITWTSDQRHGVIGSGKTLTITVKEFLDAGQYTCHKGGETLSHSHLLLHKKENGIWSTEILKNFKNKTFLKCEAPNYSGRFTCSWLVQRNMDLKFNIKSSSSSPDSRAVTCGMASLSAEKVTLDQRDYEKYSVSCQEDVTCPTAEETLPIELALEARQQNKYENYSTSFFIRDIIKPDPPKNLQMKPLKNSQVEVSWEYPDSWSTPHSYFSLKFFVRIQRKKEKMKETEEGCNQKGAFLVEKTSTEVQCKGGNVCVQAQDRYYNSSCSKWACVPCRVRS
With B1 the “Reciprocal anti-T1SP10MN(A) (-Cys) IgG endpoint titer, WEEK 4” value (T1SP10MN(A) (−Cys) [1]; [6]) was under 100, the “Reciprocal anti-T1SP10MN(A) (-Cys) IgG endpoint titer, WEEK 6” value (T1SP10MN(A) (−Cys) [1]; [6]) was under 100 and the “Reciprocal anti-T1SP10MN(A) (-Cys) IgG endpoint titer, WEEK 8” value (T1SP10MN(A) (−Cys) [1]; [6]) was under 100. The “Reciprocal anti-T1SP10MN(A) (-Cys) IgG1 endpoint titer” value (T1SP10MN(A) (−Cys) [1]; [7]) was under 100, the “Reciprocal anti-T1SP10MN(A) (-Cys) IgG2a endpoint titer” value (T1SP10MN(A) (−Cys) [1]; [7]) was under 100 and the “Reciprocal anti-T1SP10MN(A) (-Cys) IgG2b endpoint titer” value (T1SP10MN(A) (−Cys) [1]; [7]) was under 100. For the same molecule, the “Reciprocal anti-T1SP10MN(A) (−Cys) IgG (GMT) endpoint titer” value (T1SP10MN(A) (−Cys) [1]; Experiment 2, geometric mean of individual Balb/c mice, 14 days after second immunization) was 500, the “Reciprocal anti-T1SP10MN(A) (−Cys) IgG1 (pool) endpoint titer” value (T1SP10MN(A) (−Cys) [1]; [8]) was under 1000 and the “Reciprocal anti-T1SP10MN(A) (−Cys) IgG2a (pool) endpoint titer” value (T1SP10MN(A) (−Cys) [1]; [8]) was under 1000. The “Reciprocal anti-T1SP10MN(A) (−Cys) IgG (pool) endpoint titer” value (T1SP10MN(A) (−Cys) [1]; Experiment 2, pooled serum n=5 Balb/c, immunized days 0 and 21, 14 days after second immunization) was under 1000, the “IgG serum titer specific for T1SP10MN(A) (−Cys), Mouse #1” value (T1SP10MN(A) (−Cys) [1]; [9]) was 594 and the “IgG serum titer specific for T1SP10MN(A) (−Cys), Mouse #2” value (T1SP10MN(A) (−Cys) [1]; [9]) was 50. The “IgG serum titer specific for T1SP10MN(A) (−Cys), Mouse #3” value (T1SP10MN(A) (−Cys) [1]; [9]) was 50, the “IgG serum titer specific for T1SP10MN(A) (−Cys), Mouse #4” value (T1SP10MN(A) (−Cys) [1]; [9]) was 50 and the “IgG serum titer specific for T1SP10MN(A) (−Cys), Mouse #5” value (T1SP10MN(A) (−Cys) [1]; [9]) was 50. For the same molecule, the “Geometric Mean IgG serum titer specific for T1SP10MN(A) (−Cys), GMT” value (T1SP10MN(A) (−Cys) [1]; Experiment 4, n=5 Balb/c, day 41, 13 days after secondary immunization) was 82, the “Reciprocal anti-T1SP10MN(A) (−Cys) IgG1 endpoint titer” value (T1SP10MN(A) (−Cys) [1]; [10]) was under 100 and the “Reciprocal anti-T1SP10MN(A) (−Cys) IgG2a endpoint titer” value (T1SP10MN(A) (−Cys) [1]; [10]) was under 100. For the same molecule, the “Reciprocal anti-T1SP10MN(A) (−Cys) IgG2b endpoint titer” value (T1SP10MN(A) (−Cys) [1]; [10]) was under 100, the “Secretion of Interferon-gamma, Con A 1 μg/ml” value (spleen cells [2]; Six Day Cultures) was 8.4 picograms/ml and the “Secretion of Interferon-gamma, Con A 1 μg/ml” value (spleen cells [2]; Three Day Cultures, detection limit 4 picograms/ml) was 5.9 picograms/ml. For the same molecule, the “Secretion of Interferon-gamma, Con A 5 μg/ml” value (spleen cells [2]; [11]) was 179 units/ml, the “Secretion of Interferon-gamma, HIV Peptide 1.1 μg/ml” value (spleen cells [2]; [12]) was 41 units/ml and the “Secretion of Interferon-gamma, HIV Peptide 3.3 μg/ml” value (spleen cells [2]; [12]) was 2 units/ml. For the same molecule, the “Secretion of Interferon-gamma, HIV Peptide 10 μg/ml” value (spleen cells [2]; [12]) was 4 units/ml, the “Spleen cell proliferation, Con A 1 μg/ml” value (spleen cells [3]; [13]) was 42,612 delta cpm and the “Spleen cell proliferation, HIV Peptide 1.1 μg/ml” value (spleen cells [3]; [13]) was 308 delta cpm. For the same molecule, the “Spleen cell proliferation, HIV Peptide 3.3 μg/ml” value (spleen cells [3]; [13]) was 692 delta cpm, the “Spleen cell proliferation, HIV Peptide 10 μg/ml” value (spleen cells [3]; [13]) was 809 delta cpm and the “Spleen cell proliferation index normalized to ConA, Con A 5 μg/ml” value (spleen cells [3]; Experiment 2, 96 hours culture) was 99.1. For the same molecule, the “Spleen cell proliferation index normalized to ConA, HIV Peptide 1.1 μg/ml” value (spleen cells [3]; [14]) was 0.5, the “Spleen cell proliferation index normalized to ConA, HIV Peptide 3.3 μg/ml” value (spleen cells [3]; [14]) was 0.2 and the “Spleen cell proliferation index normalized to ConA, HIV Peptide 10 μg/ml” value (spleen cells [3]; [14]) was 0.2. For the same molecule, the “Spleen cell proliferation index normalized to ConA, Lysozyme 10 μg/ml” value (spleen cells [3]; [14]) was 0.2, the “Secretion of IL-4, Con A 1 μg/ml” value (spleen cells [4]; Experiment 1, Three Day Cultures, detection limit 22 Units/ml) was 156 Units/ml and the “Secretion of IL-4, Con A 5 μg/ml” value (spleen cells [4]; [11]) was 411 pg/mL. For the same molecule, the “Secretion of IL-4, HIV Peptide 1.1 μg/ml” value (spleen cells [4]; [12]) was 15 pg/mL, the “Secretion of IL-4, HIV Peptide 3.3 μg/ml” value (spleen cells [4]; [12]) was “bd” and the “Secretion of IL-4, HIV Peptide 10 μg/ml” value (spleen cells [4]; [12]) was “bd”. The “Vaginal lavage reciprocal anti-HIV peptide IgA endpoint titer” value (T1SP10MN(A) (−Cys) [5]) was under 10 and the “Vaginal lavage reciprocal anti-HIV peptide IgG endpoint titer” value (T1SP10MN(A) (−Cys) [5]) was under 10.
